In the DeepSol protein solubility set:

Assay: soluble on expression in E. coli; label from the status in PepcDB or PDB records

Row | Sequence | soluble on expression in E. coli
1 | MALPTIESFKKLSSEDKRQVLDHLFEPCNTLSNFVFIKVLHQQYNTYPEFINLVRKELLEFLKQSETFQSQYQGEISPVINEIISAHPRLGEPKKETLSVHSNNEQKTLNNDPEIIKKLKELNAAYEKTFPGLRYVVFVNGRSRHEIMDNMQKRIERNDINLERVEAFNAMCDIALDRANKLGIKL | not soluble
2 | MKKEVTEISSYDATNLVFYVNGKRVEEKDVDPKMTLATYLRDKLKLTGTKIGCNEGGCGACTIMISHIENGEIKHFSANSCLMPVCGVFGKAVTTVEGIGSVAKNRLHPVQERLAKAHGSQCGFCTPGFVMAMYALLRNNPNPTISDINLGLQGNLCRCTGYRPILEAFYSFAVDESGTLKVTEENGCGMGENCCKVKKTACGGSDETTPGYTGGERKRKIQLSDMSDCKPYDPTQELIFPPELKLHGYESMSFAYDHHHTKWYQPVSYDDLLSLKRELPHARLISGNSELAIELKFRFIDLPAVINPRQVKVLHEKHLENDGVYMGTGMSLTDMDNYSVQLMKDLPREQTAVLKHVHEMLHWFAGIHVRNVASVAGNIATASPISDLNPIWMASNALVVLDSEARGEKRVHIDEKFFLGYRKTVIQQDEIIKAVIVPLLEENEHFAAYKQAQRREDDIAIVTGAFLVKLDPKTLVVEKIRISYGGMAPTTKLALTTMEKLIGEKWSQTFLDKALGLLSDELKLPAGVPGGMSQYRLSLALSFFFKFFLGVSKKLELTEIKYVDADVKIGQNVPETLYATQLYQEVKANQPAHDPLGRPIKHVSGDKHTTGEAVYCDDINVADCNHIAFVLSPIAHGTLNSIDYTAALEIDGVVGTIDASDVTTGAQMGHHSDTPVFVKETITFHGQPIAAIVATDHEIARKAASLVKLDYSVEKPIVTIKQALEAESFVFKHFVIHSSLNDNEQVIKSDWSKYDRIVEGSIDMGGQEHFYLETQQCIVIPHEDDELEIIISNQCVNDVQIEVAKCLGMAQHKISTKVKRIGGGFGGKESTGAILAVPASLAAKKFGRPMKFKFERFDDMAITGTRHPFTLQYKLAVDENGKFLDLDYTALSNSGHTIDLSMGVMQRAMVHADNVYKFENADITGKMCKTNLASNTAFRGFGGPQGMFGTEIMVKHVAEKFGFNHDEVRVKNFYKEGDCTPFGMHLNQCNVTRTWDECRKNSDYDNRLEEVKKFNDSNKFRKRGIYLTPTRFGIGFGLKQLNQAGALVLVYTDGSVLVSHGGMEMGQGLHTKILQIAARCLEIPIERIHIHDTSTDKVPNASATAASVGSDMNGLAVQDACRQINERLERFKKLDPNGTWDDWVKAAYVDRVSLSASGFGIIHHEPVDFFNGKGAELFGYSVYGTACCEVEIDCLTGDHHLLRTDIVMDVGESLNPAIDIGQIEGAFIQGYGLFTMEEIKIRPDGIRLTRGPGNYKIPSADDAPRHFNVSLLGNSSNKMGIFSSKAIGEPPLFLGSCAFFAIREAVRAYRIQNGNADYFVFHSPATPERIRMACEDFVTSHVPELPEEGTYTPWITSV | not soluble
3 | MGSDKIHHHHHHQTPAPLAEWQFSAGIPLEKLFEDTIPDWEVRLGGAAMVRPRYDGSSNYIVVGGPSIDIRYRDIAFASIGEGLGVNVLRGKNWRAGIALSYNLGRRAKETSPLLDGMENINPAPEAKLFAEYAVSKEFPLVMRVDARRSLGGSDGWIGDIGAYMPMPGSSEKFFWFAGPTMTLADSRYMNAWYGVSASQARPGRPQFSPSGGVRSYGFGVSAVWFFDKHWFATTDVAVMQLVGDAKRSPLTQSSTNGVFDVSVNYQF | not soluble
4 | MGSDKIHHHHHHMPRIHFNPDGRRSPTEFEPVTVHHRKPPLDGIISSHRHNWSQLTCPLKGSMRVTTERQVWTVTSFRAVWIPPGVDHELTMVGATEFHAVFIDPQHSPLPANQCCVVDVSPLMRELMQWLGADYGPATDHSRRLTDVLLEEVRRATRRTSALVLPGDRRLKSLCEALMEDPGSTLTLGEWAHRTGASERTLARLFQIELGTTFGAWRQQLRLSCAVDLLRSGLSLSRIAADLGYADSAAFSTMFKRAFGVAPSRYHASSAQAMN | not soluble
5 | MSGLDDRKKLTHAKNRKPLNDIPKSAENRPNTRSTSSRRGAEKDVPITFIGSSRTVKADLPEFTNTRSRRPLHSESKKELSRNPVSRGEEHSSSLPKSSPESSVSVMSSNASLWSACTEEVNKIGVCAKRESRNLRVYKMKSFTSNMEQILSNDNQLAPTVIRILNSRNSWCLNSCHACLTFIMENITSDNYGKRSACLKALASITNSLLDTIIGFASTKTRRIGVDVVAEERAAKATECIHNFRKIVKNRDKIYKQIDQETIYKLDAILERLKKVSSHK | not soluble
6 | MGSDKIHHHHHHMAGLRVFVSSTCYDLSVIRSQLRIFIQSLGHEPLMSDYSDLLYDPRLHTHTSCVDEVATADIVVLIVGARFGGKTVPEALAKLDFDLLKKESKSTESLIKKENLSVTQLEILKAVESGIPVFTFVDSSVWHDHALYEKNKDKPIINDISFPSIEKAETASFIFEFINFLRHRARGNSVYTFSKLQDIEDTLRRQWSSLFQKLIQEQRSKAFEAKRLDNLTEQFEDLKTAILTSIGTTNERDVARGVVRFRRLIDFVRSLGLKDHNFLIRGHHPWDELLHYAEIEKVLDAAELPEEFIFHRRNFGSRPRMFLIKNDGTFFELRTSPDFFHSLSLEWEAFMDLPEDTREIIVDALSEMRPGMGPLRYIREPFDYHVDKWIHQERLLKDIDDSDHESSHS | not soluble
7 | MGSDKIHHHHHHVQKMAEGSHSAITLEAGKYRATVDPLGAALRTLHWGERELVWGYPEGRPQLAQGQILLPWPNRIDHGRYSFGGTTYQLEITEPELDNAIHGLTSTLLWQPSQITADSVRFTLAFDGAPGYPFRMEFWVCYSLDPDHGLHVRIGAQNTGDGPAPYGHGSHNYLTLGLPVDEVTLQLPAAEWQPVNERMIPTGPVRSVAGTDYDFRTPRQVGPTVLDTAFTGLRFDEAGRSWTVLSAGELCVGLWADDSHPWLQVFSADYPGPERRRHLAVEPMTCPPNAFVTGTDLIVLDPGQSIESSFGITSTPE | not soluble
8 | LLRGLLASIEHGINRVLRLDSTALPRLARLSGHVIAVDCRDPSLKIFILPSDEGLLLAADWAADADCTLRAPASSLLRLALSKDKTAVLHGPDVELEGDSGVLLELTGILQDLELDWEHELSNWVGPVASQLFSSRVRSSGRWTRESFTSLSQNVADYLSEESRTLVGNHEAEARFAELDRIKLDLDRLEARFARLAHFLNT | not soluble
9 | MKAYWIAHVDVTDPQQYSEYTQRAPAAFQLFGGKFLARGGRSEAIEGRATPQRTVIIEFESYEQAVACYHSPQYQNAMSHRQGAAKAEIVIVEGQP | not soluble
10 | MGANALDFYPEPLREEIERLNGRIYPAVNNGVYRAGFATRQDAYEEAFVQLFEELDYLEGLLGERRYLAGEYLTEADIRLFTTLVRFDAVYHGHFKCNLRRIEDYPNLSGWLRELYQRPGIGETVLEHHHHHH | not soluble
11 | GPGSMMIDGAINPREWFNWHPKEYQPWYFDRHKFIYEQGQYAAYNHLLCHQAYLKDIEHLTRYPEPRTFVIDCRMSPAKMHRWVPHSMWLPRDEVEYALQLTNDEFQEMYGFIKPAKDDDVILISHNGLASEQAGWEWRKQYYQHVYNYRGGTNELFGEDYQDFILKDRLDPWKGPYPQKSIFVDKWSKRKVLTRTGPFDRQYEMQDFALPDLELERPRHSEDGPRQNMPYGLQ | not soluble
12 | MIVSSLRGGLGNQMFIYAMVKAMALRNNVPFAFNLTTDFANDEVYKRKLLLSYFALDLPENKKLTFDFSYGNYYRRLSRNLGCHILHPSYRYICEERPPHFESRLISSKITNAFLEGYWQSEKYFLDYKQEIKEDFVIQKKLEYTSYLELEEIKLLDKNAIMIGVRRYQESDVAPGGVLEDDYYKCAMDIMASKVTSPVFFCFSQDLEWVEKHLAGKYPVRLISKKEDDSGTIDDMFLMMHFRNYIISNSSFYWWGAWLSKYDDKLVIAPGNFINKDSVPESWFKLNVRMAGDPLEHHHHHH | not soluble
13 | MERYAAALEEVADGARQQERHYQLLSALQSLVKELPSSFQQRLSYTTLSDLALALLDGTVFEIVQGLLEIQHLTEKSLYNQRLRLQNEHRVLRQALRQKHQEAQQACRPHNLPVVQAAQQRELEAVEHRIREEQRAMDQKIILELDRKVADQQSTLEKAGVAGFYVTTNPQELMLQMNLLELIRKLQQRGCRAGNAALGLGGPWQSPAAQCDQKGSPVPP | soluble
